Our source for the fold enrichment values is publication doi:10.1101/2020.09.06.285171.

In the experiment the target is EGFP-MYO10-MYO7B chimeric myosin (Bos taurus (Bt) | human (Hs)) (UniProt P79114). Briefly: in-cell filopodial tip enrichment assay with a chimeric myosin.
UniProt P79114, sequence (P79114 whole entry, change not shown): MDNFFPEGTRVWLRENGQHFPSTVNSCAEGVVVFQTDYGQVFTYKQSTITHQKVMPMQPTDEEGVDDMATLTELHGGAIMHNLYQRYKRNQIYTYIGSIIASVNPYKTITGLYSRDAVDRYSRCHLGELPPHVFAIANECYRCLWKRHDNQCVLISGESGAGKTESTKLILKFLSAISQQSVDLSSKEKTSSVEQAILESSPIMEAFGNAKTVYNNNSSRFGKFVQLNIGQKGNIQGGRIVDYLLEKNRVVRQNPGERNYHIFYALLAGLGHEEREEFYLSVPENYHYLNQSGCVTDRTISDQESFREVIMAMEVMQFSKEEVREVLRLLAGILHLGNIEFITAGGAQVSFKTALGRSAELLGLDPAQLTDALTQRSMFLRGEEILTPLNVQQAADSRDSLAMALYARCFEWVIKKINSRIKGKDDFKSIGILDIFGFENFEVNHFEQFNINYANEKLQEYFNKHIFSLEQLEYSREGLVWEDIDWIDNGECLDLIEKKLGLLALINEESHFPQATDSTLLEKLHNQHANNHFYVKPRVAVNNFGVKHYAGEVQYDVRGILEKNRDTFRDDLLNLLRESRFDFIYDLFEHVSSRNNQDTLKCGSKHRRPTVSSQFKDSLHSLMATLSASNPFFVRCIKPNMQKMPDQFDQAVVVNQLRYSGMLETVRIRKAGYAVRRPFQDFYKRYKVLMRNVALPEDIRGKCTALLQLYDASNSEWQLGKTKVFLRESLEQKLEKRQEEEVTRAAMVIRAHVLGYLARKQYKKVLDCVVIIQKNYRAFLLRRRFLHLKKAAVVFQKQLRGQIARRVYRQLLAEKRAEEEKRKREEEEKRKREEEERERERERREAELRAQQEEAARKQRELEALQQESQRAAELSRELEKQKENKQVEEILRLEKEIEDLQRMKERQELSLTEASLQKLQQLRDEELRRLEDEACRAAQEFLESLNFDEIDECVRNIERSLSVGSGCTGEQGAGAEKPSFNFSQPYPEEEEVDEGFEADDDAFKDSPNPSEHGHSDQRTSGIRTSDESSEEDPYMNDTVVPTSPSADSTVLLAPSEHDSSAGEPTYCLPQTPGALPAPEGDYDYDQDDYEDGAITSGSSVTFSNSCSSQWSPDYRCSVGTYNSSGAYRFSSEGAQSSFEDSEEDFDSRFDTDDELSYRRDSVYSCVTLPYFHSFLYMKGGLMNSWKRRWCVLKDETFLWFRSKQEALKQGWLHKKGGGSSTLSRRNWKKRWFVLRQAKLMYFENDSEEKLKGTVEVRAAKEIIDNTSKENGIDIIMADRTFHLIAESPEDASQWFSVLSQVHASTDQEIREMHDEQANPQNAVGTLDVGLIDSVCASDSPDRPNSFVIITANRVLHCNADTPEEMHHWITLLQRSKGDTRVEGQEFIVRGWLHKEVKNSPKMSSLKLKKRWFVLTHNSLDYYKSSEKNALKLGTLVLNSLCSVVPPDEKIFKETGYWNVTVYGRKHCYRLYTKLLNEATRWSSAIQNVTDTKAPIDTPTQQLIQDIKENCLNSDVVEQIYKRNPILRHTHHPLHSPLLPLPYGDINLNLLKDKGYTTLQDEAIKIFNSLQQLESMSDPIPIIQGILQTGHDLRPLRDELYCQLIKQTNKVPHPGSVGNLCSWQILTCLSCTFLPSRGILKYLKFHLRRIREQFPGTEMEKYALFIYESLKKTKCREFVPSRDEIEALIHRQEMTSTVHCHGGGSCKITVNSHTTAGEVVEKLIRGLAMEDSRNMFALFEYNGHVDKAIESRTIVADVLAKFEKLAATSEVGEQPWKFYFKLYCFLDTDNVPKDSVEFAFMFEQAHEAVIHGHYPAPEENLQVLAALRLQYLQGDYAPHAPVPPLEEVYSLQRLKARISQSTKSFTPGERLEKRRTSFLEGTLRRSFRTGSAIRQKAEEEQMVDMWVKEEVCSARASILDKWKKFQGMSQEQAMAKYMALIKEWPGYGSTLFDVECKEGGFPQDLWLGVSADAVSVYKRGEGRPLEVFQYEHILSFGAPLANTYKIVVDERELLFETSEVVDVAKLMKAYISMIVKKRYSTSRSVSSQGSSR

B1: mCherry-USH1C (harmonin/Usher syndrome 1C) (natural protein)
chain: MDRKVAREFRHKVDFLIENDAEKDYLYDVLRMYHQTMDVAVLVGDLKLVINEPSRLPLFDAIRPLIPLKHQVEYDQLTPRRSRKLKEVRLDRLHPEGLGLSVRGGLEFGCGLFISHLIKGGQADSVGLQVGDEIVRINGYSISSCTHEEVINLIRTKKTVSIKVRHIGLIPVKSSPDEPLTWQYVDQFVSESGGVRGSLGSPGNRENKEKKVFISLVGSRGLGCSISSGPIQKPGIFISHVKPGSLSAEVGLEIGDQIVEVNGVDFSNLDHKEAVNVLKSSRSLTISIVAAAGRELFMTDRERLAEARQRELQRQELLMQKRLAMESNKILQEQQEMERQRRKEIAQKAAEENERYRKEMEQIVEEEEKFKKQWEEDWGSKEQLLLPKTITAEVHPVPLRKPKYDQGVEPELEPADDLDGGTEEQGEQDFRKYEEGFDPYSMFTPEQIMGKDVRLLRIKKEGSLDLALEGGVDSPIGKVVVSAVYERGAAERHGGIVKGDEIMAINGKIVTDYTLAEAEAALQKAWNQGGDWIDLVVAVCPPKEYDDELTFF
In turn, B1 yielded a fold enrichment at filopodial tips relative to MYO10MD of 3 fold.

B2: mCherry-ANKS4B (ankyrin repeat and sterile a motif domain containing 4B) (natural protein)
chain: MSTRYHQAASDSYLELLKEATKRDLNLSDEDGMTPTLLAAYHGNLEALEIICSRGGDPDRCDIWGNTPLHFAASNGHAHCVSFLVNFGANIFALDNDLQTPLDAAASREQNECVALLDKAATAQNIMNPKKVTRLKEQAQKNARRQIKECERLQEKHQNKMAHTYSKEESGTLSSSKGTFSRSSPSNASAPGTFGSLSKGIKDTFKIKFKKNKDTAEQVGKEGRSGQRNVMEVFREEEEDSFSGDFKEKLQLSAEEDGSVHHESILNRPGLGSIVFRRNRISSPEDISDSKREFGFKLPSELLQRQGASEADEGAADEEGEENGLKDDLPWDDDEVEWEEDVVDATPLEVFLLSQHLEEFLPIFKREQIDLEALLLCSDEDLQSIQMQLGPRKKVLNAINRRKQVLQQPGQLVDTSL
As to B2, the fold enrichment at filopodial tips relative to MYO10MD was 3 fold.
